From paper PMC5663815, “Macrophage migration inhibitory factor (MIF) modulates trophic signaling through interaction with serine protease HTRA1” (Cellular and Molecular Life Sciences: CMLS, 2017)

Target: T1, Recombinant human HTRA1 (R&D Systems, 2916-SE) (human, UniProt Q92743 23-480, RED-NHS dye label (Monolith NT Protein Labeling Kit RED-NHS), molar dye to protein ratio 5:1)
T1 construct: Serine protease HTRA1, human, recombinant, R&D Systems catalogue 2916-SE; In the functional rows the HTRA1 was full-length HTRA1 (pcDNA3) in medium of stably transfected HEK293 cells, not this bought protein; also called labeled HTRA1; source: bought: R&D Systems, 2916-SE
Assay: MST; labeled HTRA1 constant at 65 nM, unlabeled MIF titrated 2.28 nM to 1 µM; 50 mM Tris, 0.05% Tween-20, pH 8.0; 20 min at RT, 25 °C; Monolith NT.115, 40% LED, 80% MST power; Thermophoresis + T-jump signal
Conditions: both partners purified

T1 sequence (Q92743 23-480): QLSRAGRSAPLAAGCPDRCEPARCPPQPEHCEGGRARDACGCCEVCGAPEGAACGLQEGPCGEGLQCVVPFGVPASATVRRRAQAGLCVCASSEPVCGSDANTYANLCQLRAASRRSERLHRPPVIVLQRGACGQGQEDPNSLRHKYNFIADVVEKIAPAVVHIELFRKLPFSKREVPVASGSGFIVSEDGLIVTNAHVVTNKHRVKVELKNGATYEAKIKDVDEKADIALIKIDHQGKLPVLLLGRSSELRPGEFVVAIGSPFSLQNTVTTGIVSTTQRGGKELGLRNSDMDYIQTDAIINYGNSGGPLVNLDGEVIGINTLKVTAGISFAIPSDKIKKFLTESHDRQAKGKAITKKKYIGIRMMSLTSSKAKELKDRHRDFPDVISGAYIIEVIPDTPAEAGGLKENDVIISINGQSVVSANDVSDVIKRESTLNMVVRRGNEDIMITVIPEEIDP

Kd: 147 nM
B1: MIF (Pepro-Tech, 300-69) (natural protein, UniProt P14174 1-115, looked up)
chain: MPMFIVNTNVPRASVPDGFLSELTQQLAQATGKPPQYIAVHVVPDQLMAFGGSSEPCALCSLHSIGKIGGAQNRSYSKLLCGLLAERLRISPDRVYINYYDMNAANVGWNNSTFA
notes: also called unlabeled MIF; non-labeled MIF; source: bought: Pepro-Tech, 300-69
